Measurements taken from patent US20030027314A1.

Tests used:
c-Jun (unmodified) [1] = experiment: thermal melting curve, mixture (FIG. 4)
c-Jun (unmodified) [2] = experiment: from thermal melts, Kd at 37 °C (FIG. 4)
Target sequence in this assay (chain, from a related filing, as listed by the source): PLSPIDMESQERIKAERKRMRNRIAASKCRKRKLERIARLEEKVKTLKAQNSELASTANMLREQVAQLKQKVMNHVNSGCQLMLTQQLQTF

[3] = molecular target: bHLH MAX (unmodified Max); experiment: homodimer, study of FIG. 9 (method not given)
[4] = molecular target: c-Myc bHLH protein (murine) (UniProt P01108); experiment: heterodimer with c-Myc, study of FIG. 9 (method not given)

Sequence of c-Fos (unmodified) (P01100 other isoform, or with tags, fused parts or gaps limits assumed): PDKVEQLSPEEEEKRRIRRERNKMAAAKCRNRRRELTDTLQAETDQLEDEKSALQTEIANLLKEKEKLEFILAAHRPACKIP
Sequence of bHLH MAX (unmodified Max) (P61244 22-113): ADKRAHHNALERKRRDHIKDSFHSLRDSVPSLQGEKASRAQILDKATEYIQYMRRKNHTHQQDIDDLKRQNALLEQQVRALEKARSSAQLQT

Substance | Tm (c-Jun (unmodified) [1]) | Kd (c-Jun (unmodified) [2]) | Kd [3] | Kd [4]
c-Fos (unmodified) (from UniProt P01100 128-207) | 50 °C | 200 nM | – | –
bHLH MAX (unmodified Max) | – | – | 6000 nM | 30 nM
0heptad-Fos (c-Fos with the basic region deleted) | 53 °C | – | – | –
